Laboratory results from article PMC12990809.

How the values were obtained:
Assay in all cases: pulldown
Settings in all cases: 20 nM protein, 1.5 uM RNA pool; 20 mM HEPES pH 7.8, 70 mM KCl, 10 mM NaCl, 10% glycerol, 2 mM DTT, 0.1 ug/uL BSA; 30 min, 4 C
[1] = target: T1, Smp_024140 (Schistosoma mansoni) (UniProt G4VQ61)
T1 sequence: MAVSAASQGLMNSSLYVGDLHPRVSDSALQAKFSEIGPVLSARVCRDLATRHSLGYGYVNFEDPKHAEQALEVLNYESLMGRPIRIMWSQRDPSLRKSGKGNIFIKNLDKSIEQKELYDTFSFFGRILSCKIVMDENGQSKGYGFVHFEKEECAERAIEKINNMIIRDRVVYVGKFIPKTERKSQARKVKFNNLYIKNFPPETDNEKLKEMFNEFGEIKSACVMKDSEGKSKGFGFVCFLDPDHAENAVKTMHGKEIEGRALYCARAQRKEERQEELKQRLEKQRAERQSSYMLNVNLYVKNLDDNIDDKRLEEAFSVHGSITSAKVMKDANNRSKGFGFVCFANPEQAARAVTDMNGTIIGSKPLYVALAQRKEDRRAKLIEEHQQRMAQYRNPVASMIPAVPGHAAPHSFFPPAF

[2] = target: T2, pabpc1A (Dictyostelium discoideum) (UniProt Q54BM2)
T2 sequence: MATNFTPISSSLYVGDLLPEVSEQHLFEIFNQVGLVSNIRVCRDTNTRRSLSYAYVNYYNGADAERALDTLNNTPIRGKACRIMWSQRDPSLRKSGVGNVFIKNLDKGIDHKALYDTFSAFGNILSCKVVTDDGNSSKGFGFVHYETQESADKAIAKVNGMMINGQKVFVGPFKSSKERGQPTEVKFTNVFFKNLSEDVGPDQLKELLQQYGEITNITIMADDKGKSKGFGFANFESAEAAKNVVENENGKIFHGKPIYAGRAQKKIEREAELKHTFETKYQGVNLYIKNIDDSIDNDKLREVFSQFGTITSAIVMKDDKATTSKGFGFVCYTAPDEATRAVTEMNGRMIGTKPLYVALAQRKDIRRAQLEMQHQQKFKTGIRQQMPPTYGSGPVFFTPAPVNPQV

[3] = target: pabpc4 (Xenopus tropicalis) (UniProt A0A8J0QFT8)
Chain of pabpc4 (Xenopus tropicalis) (A0A8J0QFT8 entry or part of it): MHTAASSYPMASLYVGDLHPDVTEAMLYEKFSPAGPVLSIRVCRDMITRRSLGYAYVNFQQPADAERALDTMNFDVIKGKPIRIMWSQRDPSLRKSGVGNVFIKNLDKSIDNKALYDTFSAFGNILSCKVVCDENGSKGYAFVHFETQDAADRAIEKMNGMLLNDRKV

[4] = target: T3, TVAG_371220 (Trichomonas vaginalis) (UniProt A2FYE4)
T3 sequence: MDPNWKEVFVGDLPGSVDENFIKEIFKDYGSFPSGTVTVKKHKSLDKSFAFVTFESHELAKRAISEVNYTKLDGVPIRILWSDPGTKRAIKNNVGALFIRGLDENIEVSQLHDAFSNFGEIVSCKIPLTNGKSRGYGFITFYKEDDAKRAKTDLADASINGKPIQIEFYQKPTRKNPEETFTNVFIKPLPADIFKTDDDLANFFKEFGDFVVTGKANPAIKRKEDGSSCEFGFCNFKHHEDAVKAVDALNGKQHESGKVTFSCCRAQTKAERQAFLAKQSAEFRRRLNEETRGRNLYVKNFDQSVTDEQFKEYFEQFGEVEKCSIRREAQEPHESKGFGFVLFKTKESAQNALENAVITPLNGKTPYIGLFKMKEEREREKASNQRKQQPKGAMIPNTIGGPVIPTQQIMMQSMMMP

[5] = target: T4, grld-1 (Caenorhabditis elegans) (UniProt H2KYB8)
T4 sequence: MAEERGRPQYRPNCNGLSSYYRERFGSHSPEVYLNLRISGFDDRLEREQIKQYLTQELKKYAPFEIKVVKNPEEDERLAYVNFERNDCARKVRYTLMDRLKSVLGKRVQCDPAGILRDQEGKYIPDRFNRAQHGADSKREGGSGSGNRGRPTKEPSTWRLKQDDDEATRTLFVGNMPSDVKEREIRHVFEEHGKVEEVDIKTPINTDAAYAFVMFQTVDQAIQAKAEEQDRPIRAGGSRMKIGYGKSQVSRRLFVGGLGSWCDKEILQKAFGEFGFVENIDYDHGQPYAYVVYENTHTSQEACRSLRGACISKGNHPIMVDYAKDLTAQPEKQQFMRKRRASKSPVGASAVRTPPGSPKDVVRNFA

[6] = target: T5, snrpB2 (Dictyostelium discoideum) (UniProt Q54J05)
T5 sequence: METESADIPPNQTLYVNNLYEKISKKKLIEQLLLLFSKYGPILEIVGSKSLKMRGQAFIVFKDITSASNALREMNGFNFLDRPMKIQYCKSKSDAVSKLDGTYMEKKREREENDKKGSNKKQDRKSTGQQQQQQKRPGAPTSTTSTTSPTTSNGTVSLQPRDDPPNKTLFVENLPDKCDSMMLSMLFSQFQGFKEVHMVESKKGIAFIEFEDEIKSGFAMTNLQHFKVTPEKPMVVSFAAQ

[7] = target: T6, rnp-3 (Caenorhabditis elegans) (UniProt Q21323)
T6 sequence: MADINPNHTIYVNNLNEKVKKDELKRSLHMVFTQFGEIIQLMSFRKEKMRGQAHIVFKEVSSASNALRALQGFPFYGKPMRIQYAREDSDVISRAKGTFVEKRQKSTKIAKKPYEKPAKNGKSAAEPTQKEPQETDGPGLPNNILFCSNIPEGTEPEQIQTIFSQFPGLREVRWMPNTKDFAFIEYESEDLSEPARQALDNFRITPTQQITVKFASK

[8] = target: T7, rsp-3 (Caenorhabditis elegans) (UniProt Q9NEW6)
T7 sequence: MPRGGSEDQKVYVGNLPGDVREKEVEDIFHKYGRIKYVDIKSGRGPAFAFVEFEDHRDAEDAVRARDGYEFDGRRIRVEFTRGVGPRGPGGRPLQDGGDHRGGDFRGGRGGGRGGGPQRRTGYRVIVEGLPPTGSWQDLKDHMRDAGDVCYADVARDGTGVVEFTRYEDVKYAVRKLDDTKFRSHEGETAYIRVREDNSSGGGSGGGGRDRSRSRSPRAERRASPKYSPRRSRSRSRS

[9] = target: T8, Smp_006320 (Schistosoma mansoni) (UniProt G4VQQ6)
T8 sequence: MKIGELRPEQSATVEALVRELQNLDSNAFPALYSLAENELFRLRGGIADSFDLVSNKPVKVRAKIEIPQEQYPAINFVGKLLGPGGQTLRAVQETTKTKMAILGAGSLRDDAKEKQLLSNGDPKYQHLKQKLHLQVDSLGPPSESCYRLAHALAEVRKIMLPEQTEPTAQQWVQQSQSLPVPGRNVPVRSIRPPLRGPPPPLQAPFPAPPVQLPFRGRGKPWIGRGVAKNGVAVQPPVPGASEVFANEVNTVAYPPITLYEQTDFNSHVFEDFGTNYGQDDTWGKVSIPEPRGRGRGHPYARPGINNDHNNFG

## AAAAAA [RNAcompete motif RNCMPT00501]
[1]
  binding signal (z-score (mean of top ten 7-mers)): 8.02

## AAAAAAA [RNAcompete motif RNCMPT00508]
[2]
  binding signal (z-score (mean of top ten 7-mers)): 14.8

## AAAAAAG [RNAcompete motif RNCMPT00511]
[3]
  binding signal (z-score (mean of top ten 7-mers)): 13.4

## AAAAAAG [RNAcompete motif RNCMPT00623]
[4]
  binding signal (z-score (mean of top ten 7-mers)): 11.9

## ACUACUA [RNAcompete motif RNCMPT00509]
[5]
  binding signal (z-score (mean of top ten 7-mers)): 8.74

## AGCAC [RNAcompete motif RNCMPT00507]
[6]
  binding signal (z-score (mean of top ten 7-mers)): 12.9

## AGCACGG [RNAcompete motif RNCMPT00510]
[7]
  binding signal (z-score (mean of top ten 7-mers)): 14.1

## AGGACGA [RNAcompete motif RNCMPT00503]
[8]
  binding signal (z-score (mean of top ten 7-mers)): 7.55

## AUAAAUA [RNAcompete motif RNCMPT00500]
[9]
  binding signal (z-score (mean of top ten 7-mers)): 8.79
